We go through 27 molecules from patent US20230265217A1 (TWIST BIOSCIENCE, published 2023).

Substitutions are numbered along the chain they refer to.

The labels stand for the following.
B1: 7-17 (VHH, not shown: a dimerising Fc or GST)
VHH: EVQLVESGGGLVQPGGSLRLSCAASGFSLDYYGMGWFRQAPGKEREFVAAITSGGTPHYADSVKGRFTISADNSKNTAYLQMNSLKPEDTAVYYCASAYNPGIGYDWGQGTLVTVSS
B2: 7-6 (VHH, not shown: a dimerising Fc or GST)
VHH: EVQLVESGGGLVQPGGSLRLSCAASGRIFYPMGWFRQAPGKEREFVAAVRWSSTGIYYTQYADSVKGRFTISADNSKNTAYLQMNSLKPEDTAVYYCAAALSEVWRGSENLREGYDWGQGTLVTVSS
B3: 8-10 (VHH, not shown: a dimerising Fc or GST)
VHH: EVQLVESGGGLVQPGGSLRLSCAASGFIGNYHAMGWFRQAPGKEREFVAAVTWSGGTTNYADSVKGRFTISADNSKNTAYLQMNSLKPEDTAVYYCAREGYYYDSSGYPYYFDYWGQGTLVTVSS
B4: 7-09 (VHH)
VHH: EVQLVESGGGLVQPGGSLRLSCAASGGTFSSIGMGWFRQAPGKEREFVAAISWDGGATAYADSVKGRFTISADNSKNTAYLQMNSLKPEDTAVYYCAKEDVGKPFDWGQGTLVTVSS
notes: also called 7-9
B5: 7-26 (VHH)
VHH: EVQLVESGGGLVQPGGSLRLSCAASGSTFSINAMGWFRQAPGKEREFVAGITSSGGYTNYADSVKGRFTISADNSKNTAYLQMNSLKPEDTAVYYCAADGVPEYSDYASGPVWGQGTLVTVSS
B6: 3-31 (VHH)
VHH: B5 VHH
notes: also called 3-31_ExpiCHO
B7: 7-8 (VHH)
VHH: B5 VHH with S30T, A49S, T52S, S53H, S54N, Y57T
B8: 7-37 (VHH)
VHH: B5 VHH with F29L, S53R, G56S, Y57V
B9: 7-24 (VHH, not shown: a dimerising Fc or GST)
VHH: EVQLVESGGGLVQPGGSLRLSCAASGFTFSRHAMNWFRQAPGKEREFVSTITGSGGSTNYADSVKGRFTISADNSKNTAYLQMNSLKPEDTAVYYCAREVGLYYYGSGSSSRRLLGRIDYYFDYWGQGTLVTVSS
B10: 3-28 (VHH, not shown: a dimerising Fc or GST)
VHH: EVQLVESGGGLVQPGGSLRLSCAASGFTFRRYDMGWFRQAPGKEREFVSAISGGLAYYADSVKGRFTISADNSKNTAYLQMNSLKPEDTAVYYCAVDLSGDAVYDWGQGTLVTVSS
B11: 7-14 (VHH)
VHH: EVQLVESGGGLVQPGGSLRLSCAASGSTFSINAMGWFRQAPGKEREFVAGISRGGTTNYADSVKGRFTISADNSKNTAYLQMNSLKPEDTAVYYCAADGVPEYSDYASGPVWGQGTLVTVSS
B12: 7-32 (VHH)
VHH: B11 VHH with I31V, I51V, S52T, T56Y
B13: 7-31 (VHH, not shown: a dimerising Fc or GST)
VHH: EVQLVESGGGLVQPGGSLRLSCAASGFTFSNYSMGWFRQAPGKEREFVAAIHWNGDSTAYADSVKGRFTISADNSKNTAYLQMNSLKPEDTAVYYCAAQTEDSAQYIWGQGTLVTVSS
B14: 7-21 (VHH)
VHH: EVQLVESGGGLVQPGGSLRLSCAASGRTISRYTMGWFRQAPGKEREFVASITSGGSTAYADSVKGRFTISADNSKNTAYLQMNSLKPEDTAVYYCAKEDVGKPFDWGQGTLVTVSS
B15: 7-41 (VHH)
VHH: B14 VHH with I29F, R31T, T33V, T52S, G54R, S56I, A58H
B16: 7-40 (VHH)
VHH: B14 VHH with I29F, S30R, S53K, G54F, A58N
B17: 7-45 (VHH)
VHH: B14 VHH with I29L, A58N
B18: 7-22 (VHH, not shown: a dimerising Fc or GST)
VHH: B14 VHH with S30T, E98Q
B19: 8-3 (VHH, not shown: a dimerising Fc or GST)
VHH: EVQLVESGGGLVQPGGSLRLSCAASGTTLDYYAMGWFRQAPGKEREFVAAISWSGGSTAYADSVKGRFTISADNSKNTAYLQMNSLKPEDTAVYYCAREDYYDSSGYSWGQGTLVTVSS
B20: 8-06 (VHH, not shown: a dimerising Fc or GST)
VHH: EVQLVESGGGLVQPGGSLRLSCAASGFTFDYYAMGWFRQAPGKEREFVSAIDSEGRTSYADSVKGRFTISADNSKNTAYLQMNSLKPEDTAVYYCARWGPFDIWGQGTLVTVSS
notes: also called 8-6
B21: 3-24 (VHH, not shown: a dimerising Fc or GST)
VHH: EVQLVESGGGLVQPGGSLRLSCAASGINFSRYGMGWFRQAPGKEREFVASITYLGRTNYADSVKGRFTISADNSKNTAYLQMNSLKPEDTAVYYCALRVRPYGQYDWGQGTLVTVSS
B22: 7-30 (VHH, not shown: a dimerising Fc or GST)
VHH: EVQLVESGGGLVQPGGSLRLSCAASGRTFSMHAMGWFRQAPGKEREFVASISSQGRTNYADSVKGRFTISADNSKNTAYLQMNSLKPEDTAVYYCAAEVRNGSDYLPIDWGQGTLVTVSS
B23: 7-29 (VHH, not shown: a dimerising Fc or GST)
VHH: EVQLVESGGGLVQPGGSLRLSCAASGRTHSIYPMGWFRQAPGKEREFVASITSYGDTNYADSVKGRFTISADNSKNTAYLQMNSLKPEDTAVYYCAARRWIPPGPIWGQGTLVTVSS
B24: 3-17 (VHH, not shown: a dimerising Fc or GST)
VHH: EVQLVESGGGLVQPGGSLRLSCAASGRTSSSAVMGWFRQAPGKEREFVAAINRGGSTIYVDSVKGRFTISADNSKNTAYLQMNSLKPEDTAVYYCATGPYRSYFARSYLWGQGTLVTVSS
B25: 6A-63 (VHH)
VHH: EVQLVESGGGLVQPGGSLRLSCAASGQTFNMGWFRQAPGKEREFVAAIGSGGSTSYADSVKGRFTISADNSKNTAYLQMNSLKPEDTAVYYCWRLGNDYFDYWGQGTLVTVSS
B26: 5A-1 (VHH)
VHH: B4 VHH
B27: 6A-3 (VHH)
VHH: EVQLVESGGGLVQPGGSLRLSCAASGFTFSPSWMGWFRQAPGKEREFVATINEYGGRNYADSVKGRFTISADNSKNTAYLQMNSLKPEDTAVYYCARVDRDFDYWGQGTLVTVSS

The first assay has as its target T1, SARS-CoV-2 S1 (Acro) (SARS-CoV-2, UniProt P0DTC2 16-685).
T1 construct: also called Acro S1
Kind of assay: Carterra SPR.
Consider B1, for which binding was put at a Kd of 0.0604 µM. In other words, the double-digit nanomolar range. Same read-out and setting: as for B2, the figure is 0.0424 µM; as for B3, 658 µM. Same read-out and setting: the value for B4 was 0.0241 µM. Same read-out and setting: as for B5, the figure is 0.0248 µM. Molecule B6 yielded a Kd of 0.021 µM. The Kd values of the last two molecules are within 1.5-fold of each other. Turning to B7, the dissociation constant Kd worked out at 0.0528 µM.

B8 had a Kd of 0.0216 µM.

In turn, B9 returned a Kd of 4260 µM. Still for that read-out and setting: as for B10, the figure is 0.0522 µM; as for B11, 0.0208 µM. On the same count and under the same terms, as for B12, the figure is 0.0485 µM; as for B13, 0.228 µM; as for B14, 0.0271 µM.

Consider B15, for which the Kd is 0.0481 µM. Still for that read-out and setting: the value for B16 was 85.6 µM; that for B17 was 0.0363 µM; that for B18 was 0.0409 µM. On the same count and under the same terms, the value for B19 was 18.4 µM; that for B20 was 0.0377 µM. Regarding B21, the binding result is “no binding”. In turn, B22 displayed a Kd of 0.0487 µM. With B23, binding was characterised by a dissociation constant (Kd) of 0.0312 µM. In turn, B24 came in with a Kd of 0.141 µM.

For a further assay, the target named is T1, SARS-CoV-2 S1 (Acro). The assay is described as follows: Carterra SPR. This is another data set of the same source.
The molecule B25 showed a Kd of 46.4 nM. On the same count and under the same terms, as for B4, the figure is 24.1 nM; as for B26, 6.6 nM; as for B5, 24.8 nM. Same read-out and setting: the value for B6 was 21 nM; that for B8 was 21.6 nM; that for B10 was 52.2 nM. On the same count and under the same terms, as for B11, the figure is 20.8 nM. In turn, B22 displayed a Kd of 48.7 nM. This Kd is about 2.3-fold higher than that of the molecule before. For B27, binding was characterised by a dissociation constant (Kd) of 31.5 nM.

A further assay concerns the target SARS-CoV-2 S1 monomer (SARS-CoV-2, UniProt P0DTC2 16-685). Kind of assay: binding kinetics, Carterra SPR.
B5: the Kd turned out to be 3.63 nM.

B6 yielded a dissociation constant (Kd) of 5.91 nM.

As to B8, the dissociation constant (Kd) was 17.1 nM, the koff turned out to be 0.000528 s⁻¹ and the association rate constant (kon) stood at 30800 M⁻¹ s⁻¹.

In turn, B11 showed a dissociation constant Kd of 9.57 nM, an off-rate (koff) of 0.000404 s⁻¹ and an on-rate constant (kon) of 42200 M⁻¹ s⁻¹.

Usually Kd stands for the free concentration of one partner at which half of the binding sites on the other are occupied at equilibrium, for simple one-to-one binding. What is called koff is the rate constant with which the complex falls apart. Low values mean slow dissociation, high ones fast dissociation. The term kon denotes the rate constant with which the complex forms. Higher therefore signals fast association.
